Data published in IntAct's records for PubMed 24012335.

B1: Serine/threonine-protein kinase Warts (Drosophila melanogaster (Fruit fly)), Q9VA38 (parent)
chain: MHPAGEKRGGRPNDKYTAEALESIKQDLTRFEVQNNHRNNQNYTPLRYTATNGRNDALTPDYHHAKQPMEPPPSASPAPDVVIPPPPAIVGQPGAGSISVSGVGVGVVGVANGRVPKMMTALMPNKLIRKPSIERDTASSHYLRCSPALDSGAGSSRSDSPHSHHTHQPSSRTVGNPGGNGGFSPSPSGFSEVAPPAPPPRNPTACSAATPPPPVPPTSQAYVKRRSPALNNRPPAIAPPTQRGNSPVITQNGLKNPQQQLTQQLKSLNLYPGGGSGAVVEPPPPYLIQGGAGGAAPPPPPPSYTASMQSRQSPTQSQQSDYRKSPSSGIYSATSAGSPSPITVSLPPAPLAKPQPRVYQARSQQPIIMQSVKSTQVQKPVLQTAVAPQSPSSASASNSPVHVLAAPPSYPQKSAAVVQQQQQAAAAAHQQQHQHQQSKPPTPTTPPLVGLNSKPNCLEPPSYAKSMQAKAATVVQQQQQQQQQQQQVQQQQVQQQQQQQQQQLQALRVLQAQAQRERDQRERDQRERERDQQKLANGNPGRQMLPPPPYQSNNNNNSEIKPPSCNNNNIQISNSNLATTPPIPPAKYNNNSSNTGANSSGGSNGSTGTTASSSTSCKKIKHASPIPERKKISKEKEEERKEFRIRQYSPQAFKFFMEQHIENVIKSYRQRTYRKNQLEKEMHKVGLPDQTQIEMRKMLNQKESNYIRLKRAKMDKSMFVKLKPIGVGAFGEVTLVSKIDTSNHLYAMKTLRKADVLKRNQVAHVKAERDILAEADNNWVVKLYYSFQDKDNLYFVMDYIPGGDLMSLLIKLGIFEEELARFYIAEVTCAVDSVHKMGFIHRDIKPDNILIDRDGHIKLTDFGLCTGFRWTHNSKYYQENGNHSRQDSMEPWEEYSENGPKPTVLERRRMRDHQRVLAHSLVGTPNYIAPEVLERSGYTQLCDYWSVGVILYEMLVGQPPFLANSPLETQQKVINWEKTLHIPPQAELSREATDLIRRLCASADKRLGKSVDEVKSHDFFKGIDFADMRKQKAPYIPEIKHPTDTSNFDPVDPEKLRSNDSTMSSGDDVDQNDRTFHGFFEFTFRRFFDDKQPPDMTDDQAPVYV
partner: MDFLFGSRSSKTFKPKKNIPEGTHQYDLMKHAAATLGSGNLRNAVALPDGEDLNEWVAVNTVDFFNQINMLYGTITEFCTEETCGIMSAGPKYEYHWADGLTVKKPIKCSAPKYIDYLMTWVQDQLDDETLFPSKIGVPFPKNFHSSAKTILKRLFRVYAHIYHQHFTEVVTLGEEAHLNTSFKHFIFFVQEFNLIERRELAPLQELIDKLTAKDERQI
B2: Serine/threonine-protein kinase Warts (Drosophila melanogaster (Fruit fly)), Q9VA38 (parent)
chain: B1 chain
partner: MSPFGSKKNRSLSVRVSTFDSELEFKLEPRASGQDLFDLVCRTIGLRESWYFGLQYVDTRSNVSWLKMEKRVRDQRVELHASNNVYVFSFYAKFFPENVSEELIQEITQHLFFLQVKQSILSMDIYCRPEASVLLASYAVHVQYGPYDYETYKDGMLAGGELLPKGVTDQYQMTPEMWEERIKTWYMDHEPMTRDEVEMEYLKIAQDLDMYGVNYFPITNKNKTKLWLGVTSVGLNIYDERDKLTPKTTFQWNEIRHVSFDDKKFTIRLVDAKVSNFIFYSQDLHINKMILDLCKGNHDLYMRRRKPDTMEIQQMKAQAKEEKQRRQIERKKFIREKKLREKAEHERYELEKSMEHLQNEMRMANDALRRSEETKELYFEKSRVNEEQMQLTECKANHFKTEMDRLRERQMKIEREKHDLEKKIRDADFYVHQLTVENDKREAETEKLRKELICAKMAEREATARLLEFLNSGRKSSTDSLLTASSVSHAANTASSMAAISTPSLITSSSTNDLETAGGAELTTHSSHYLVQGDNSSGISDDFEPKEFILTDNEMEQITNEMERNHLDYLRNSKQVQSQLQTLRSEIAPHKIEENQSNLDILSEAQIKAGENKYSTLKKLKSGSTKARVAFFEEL
B3: Merlin (Homo sapiens), P35240 (parent)
chain: MAGAIASRMSFSSLKRKQPKTFTVRIVTMDAEMEFNCEMKWKGKDLFDLVCRTLGLRETWFFGLQYTIKDTVAWLKMDKKVLDHDVSKEEPVTFHFLAKFYPENAEEELVQEITQHLFFLQVKKQILDEKIYCPPEASVLLASYAVQAKYGDYDPSVHKRGFLAQEELLPKRVINLYQMTPEMWEERITAWYAEHRGRARDEAEMEYLKIAQDLEMYGVNYFAIRNKKGTELLLGVDALGLHIYDPENRLTPKISFPWNEIRNISYSDKEFTIKPLDKKIDVFKFNSSKLRVNKLILQLCIGNHDLFMRRRKADSLEVQQMKAQAREEKARKQMERQRLAREKQMREEAERTRDELERRLLQMKEEATMANEALMRSEETADLLAEKAQITEEEAKLLAQKAAEAEQEMQRIKATAIRTEEEKRLMEQKVLEAEVLALKMAEESERRAKEADQLKQDLQEAREAERRAKQKLLEIATKPTYPPMNPIPAPLPPDIPSFNLIGDSLSFDFKDTDMKRLSMEIEKEKVEYMEKSKHLQEQLNELKTEIEALKLKERETALDILHNENSDRGGSSKHNTIKKLTLQSAKSRVAFFEEL
partner: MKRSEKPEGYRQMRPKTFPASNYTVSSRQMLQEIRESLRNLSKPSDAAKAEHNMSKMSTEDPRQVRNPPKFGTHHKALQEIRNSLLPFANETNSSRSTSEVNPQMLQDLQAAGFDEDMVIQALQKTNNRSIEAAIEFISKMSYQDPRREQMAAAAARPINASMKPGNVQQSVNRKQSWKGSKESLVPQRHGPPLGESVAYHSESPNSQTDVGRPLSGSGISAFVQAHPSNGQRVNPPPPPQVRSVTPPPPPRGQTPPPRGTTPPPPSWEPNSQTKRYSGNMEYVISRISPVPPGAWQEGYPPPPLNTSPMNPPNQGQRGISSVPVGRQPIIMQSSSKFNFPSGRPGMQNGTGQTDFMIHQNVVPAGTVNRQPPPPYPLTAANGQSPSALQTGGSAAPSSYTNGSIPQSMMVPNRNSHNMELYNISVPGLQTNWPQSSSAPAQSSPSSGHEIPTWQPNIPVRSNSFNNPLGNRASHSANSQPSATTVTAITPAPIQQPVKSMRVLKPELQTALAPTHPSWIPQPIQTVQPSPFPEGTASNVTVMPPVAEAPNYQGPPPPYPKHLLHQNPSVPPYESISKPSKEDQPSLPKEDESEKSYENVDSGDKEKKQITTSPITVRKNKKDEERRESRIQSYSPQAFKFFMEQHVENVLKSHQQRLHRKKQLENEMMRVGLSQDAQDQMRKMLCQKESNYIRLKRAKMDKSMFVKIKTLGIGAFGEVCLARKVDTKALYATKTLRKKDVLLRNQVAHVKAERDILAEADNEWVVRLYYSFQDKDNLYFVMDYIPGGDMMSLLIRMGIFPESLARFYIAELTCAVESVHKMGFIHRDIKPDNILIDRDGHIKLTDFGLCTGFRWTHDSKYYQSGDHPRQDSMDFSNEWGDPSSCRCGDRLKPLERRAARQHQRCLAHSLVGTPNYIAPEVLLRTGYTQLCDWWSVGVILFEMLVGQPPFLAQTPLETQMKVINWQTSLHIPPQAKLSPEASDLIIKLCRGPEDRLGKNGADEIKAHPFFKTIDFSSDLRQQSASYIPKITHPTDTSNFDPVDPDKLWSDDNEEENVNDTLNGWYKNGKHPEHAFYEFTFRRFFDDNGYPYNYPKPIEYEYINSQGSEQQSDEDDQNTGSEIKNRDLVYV
B4: Serine/threonine-protein kinase LATS1 (Homo sapiens), O95835 (parent)
chain: B3 partner

Variants of: B1
Settings: with mob1_drome mats

Row | Variant | effect of a mutation on the interaction
1 | R708A | disrupting interaction strength

Variants of: B2
Settings: with merh_drome Mer

Row | Variant | effect of a mutation on the interaction
2 | A20P;I24T;L28P | disrupting interaction strength

Variants of: B3
Settings: with lats1_human LATS1, O95835

Row | Variant | effect of a mutation on the interaction
3 | MAGAIASRMSFSSLKRKQPKTFTVRIVTMDAEMEFNCEMKWKGKDRFDLVCRTLGLRETWFFGLQYTIKDTVAWLKMDKKVLDHDVSKEEPVTFHFLAKFYPENAEEELVQEITQHLFFLQVKKQILDEKIYCPPEASVLLASYAVQAKYGDYDPSVHKRGFLAQEELLPKRVINLYQMTPEMWEERITAWYAEHRGRARDEAEMEYLKIAQDLEMYGVNYFAIRNKKGTELLLGVDALGLHIYDPENRLTPKISFPWNEIRNISYSDKEFTIKPLDKKIDVFKFNSSKLRVNKLILQLCIGNHDLFMRRRKADSLEVQQMKAQAREEKARKQMERQRLAREKQMREEAERTRDELERRLLQMKEEATMANEALMRSEETADLLAEKAQITEEEAKLLAQKAAEAEQEMQRIKATAIRTEEEKRLMEQKVLEAEVLALKMAEESERRAKEADQLKQDLQEAREAERRAKQKLLEIATKPTYPPMNPIPAPLPPDIPSFNLIGDSLSFDFKDTDMKRLSMEIEKEKVEYMEKSKHLQEQLNELKTEIEALKLKERETALDILHNENSDRGGSSKHNTIKKLTLQSAKSRVAFFEEL [L46R] | disrupting interaction strength
4 | MAGAIASRMSFSSLKRKQPKTFTVRIVTMDAEMEFNCEMKWKGKDLFDLVCRTLGLRETWFFGLQYTIKDTVAWLKMDKKVLDHDVSKEEPVTFHFLAKFYPENAEEELVQEITQHLFFLQVKKQILDEKIYCPPEASVLPASYAVQAKYGDYDPSVHKRGFLAQEELLPKRVINLYQMTPEMWEERITAWYAEHRGRARDEAEMEYLKIAQDLEMYGVNYFAIRNKKGTELLLGVDALGLHIYDPENRLTPKISFPWNEIRNISYSDKEFTIKPLDKKIDVFKFNSSKLRVNKLILQLCIGNHDLFMRRRKADSLEVQQMKAQAREEKARKQMERQRLAREKQMREEAERTRDELERRLLQMKEEATMANEALMRSEETADLLAEKAQITEEEAKLLAQKAAEAEQEMQRIKATAIRTEEEKRLMEQKVLEAEVLALKMAEESERRAKEADQLKQDLQEAREAERRAKQKLLEIATKPTYPPMNPIPAPLPPDIPSFNLIGDSLSFDFKDTDMKRLSMEIEKEKVEYMEKSKHLQEQLNELKTEIEALKLKERETALDILHNENSDRGGSSKHNTIKKLTLQSAKSRVAFFEEL [L141P] | disrupting interaction strength
5 | MAGAIASRMSFSSLKRKQPKTFTVRIVTMDAEMEFNCEMKWKGKDLFDLVCRTLGLRETWFSGLQYTIKDTVAWLKMDKKVLDHDVSKEEPVTFHFLAKFYPENAEEELVQEITQHLFFLQVKKQILDEKIYCPPEASVLLASYAVQAKYGDYDPSVHKRGFLAQEELLPKRVINLYQMTPEMWEERITAWYAEHRGRARDEAEMEYLKIAQDLEMYGVNYFAIRNKKGTELLLGVDALGLHIYDPENRLTPKISFPWNEIRNISYSDKEFTIKPLDKKIDVFKFNSSKLRVNKLILQLCIGNHDLFMRRRKADSLEVQQMKAQAREEKARKQMERQRLAREKQMREEAERTRDELERRLLQMKEEATMANEALMRSEETADLLAEKAQITEEEAKLLAQKAAEAEQEMQRIKATAIRTEEEKRLMEQKVLEAEVLALKMAEESERRAKEADQLKQDLQEAREAERRAKQKLLEIATKPTYPPMNPIPAPLPPDIPSFNLIGDSLSFDFKDTDMKRLSMEIEKEKVEYMEKSKHLQEQLNELKTEIEALKLKERETALDILHNENSDRGGSSKHNTIKKLTLQSAKSRVAFFEEL [F62S] | disrupting interaction strength
6 | MAGAIASRMSFSSLKRKQPKTFTVRIVTMDAEMEFNCEMKWKGKDLFDLVCRTLGLRETWFFGPQYTIKDTVAWLKMDKKVLDHDVSKEEPVTFHFLAKFYPENAEEELVQEITQHLFFLQVKKQILDEKIYCPPEASVLLASYAVQAKYGDYDPSVHKRGFLAQEELLPKRVINLYQMTPEMWEERITAWYAEHRGRARDEAEMEYLKIAQDLEMYGVNYFAIRNKKGTELLLGVDALGLHIYDPENRLTPKISFPWNEIRNISYSDKEFTIKPLDKKIDVFKFNSSKLRVNKLILQLCIGNHDLFMRRRKADSLEVQQMKAQAREEKARKQMERQRLAREKQMREEAERTRDELERRLLQMKEEATMANEALMRSEETADLLAEKAQITEEEAKLLAQKAAEAEQEMQRIKATAIRTEEEKRLMEQKVLEAEVLALKMAEESERRAKEADQLKQDLQEAREAERRAKQKLLEIATKPTYPPMNPIPAPLPPDIPSFNLIGDSLSFDFKDTDMKRLSMEIEKEKVEYMEKSKHLQEQLNELKTEIEALKLKERETALDILHNENSDRGGSSKHNTIKKLTLQSAKSRVAFFEEL [L64P] | disrupting interaction strength

Variants of: B4
Settings: with merl_human NF2, P35240

Row | Variant | effect of a mutation on the interaction
7 | A77P;I81T;L85P | disrupting interaction strength

Variants of: B4
Settings: with NF2, P35240-1

Row | Variant | effect of a mutation on the interaction
8 | A77P;I81T;L85P | disrupting interaction strength
